According to patent US20230285583A1, “LIQUID FORMULATION OF LONG-ACTING CONJUGATE OF GLUCAGON, GLP-1, AND GIP TRIGONAL AGONIST” (HANMI PHARM, CO., LTD., priority 2020, published 2023):
Bridge positions count the residues as written; N and C are the ends. Square brackets hold non-standard residues; d marks the D form. Ends that are not written are not given here. * marks the point of attachment. Acetyl(2-(4-imidazolyl)) = O=C(Cc1c[nH]cn1)*; Aib = CC(C)(N)C(=O)O

T1: human GIP receptor (human, UniProt P48546 22-466)
T1 sequence (looked up): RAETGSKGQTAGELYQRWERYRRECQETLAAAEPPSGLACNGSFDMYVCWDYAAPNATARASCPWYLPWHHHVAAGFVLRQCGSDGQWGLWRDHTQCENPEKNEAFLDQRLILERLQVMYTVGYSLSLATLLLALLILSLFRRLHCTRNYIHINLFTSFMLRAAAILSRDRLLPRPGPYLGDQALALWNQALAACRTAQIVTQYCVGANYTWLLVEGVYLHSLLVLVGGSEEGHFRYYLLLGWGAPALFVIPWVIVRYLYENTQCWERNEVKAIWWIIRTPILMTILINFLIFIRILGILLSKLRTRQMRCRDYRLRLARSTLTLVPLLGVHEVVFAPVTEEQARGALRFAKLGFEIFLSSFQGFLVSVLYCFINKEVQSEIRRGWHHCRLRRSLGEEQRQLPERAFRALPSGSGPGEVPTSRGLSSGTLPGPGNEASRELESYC


How the values were obtained:
Experiment in all cases: cell-based or functional assay
[1] = biological target: human GLP-1 receptor (human, UniProt P43220 24-463)
[2] = biological target: T1, human GIP receptor
[3] = biological target: human GCG receptor (human, UniProt P47871 26-477)
Chain of human GCG receptor (P47871 26-477): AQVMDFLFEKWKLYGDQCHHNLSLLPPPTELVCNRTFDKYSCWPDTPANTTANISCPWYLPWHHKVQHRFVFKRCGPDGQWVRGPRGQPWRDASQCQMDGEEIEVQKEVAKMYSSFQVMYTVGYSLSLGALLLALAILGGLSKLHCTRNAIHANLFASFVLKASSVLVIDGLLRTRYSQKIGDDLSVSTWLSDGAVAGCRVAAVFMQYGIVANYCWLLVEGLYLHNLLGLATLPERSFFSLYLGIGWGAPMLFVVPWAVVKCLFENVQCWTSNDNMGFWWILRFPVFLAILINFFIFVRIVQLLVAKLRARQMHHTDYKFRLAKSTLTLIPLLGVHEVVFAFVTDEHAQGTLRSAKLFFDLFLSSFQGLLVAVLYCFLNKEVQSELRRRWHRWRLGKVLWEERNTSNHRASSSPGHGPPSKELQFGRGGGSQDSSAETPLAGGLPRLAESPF

Binder | In Vitro Activity Compared to Native Peptide (%) vs. GLP-1 (relative titer from cAMP EC50) [1] [%] | In Vitro Activity Compared to Native Peptide (%) vs. GIP (relative titer from cAMP EC50) [2] [%] | In Vitro Activity Compared to Native Peptide (%) vs. Glucagon (relative titer from cAMP EC50) [3] [%]
H[Aib]QGTFTSDYSKYLDEKRQKEFVQWLLNTKC (bridge 16-20; not fully specified (bridges)) [trigonal agonist of SEQ ID NO: 18] | 39.1 | 0.2 | 2.6
Y[Aib]QGTFTSDYSKCLDEKAAKEFVQWLLDHHPSSGQPPPS (bridge 16-20; not fully specified (bridges)) [trigonal agonist of SEQ ID NO: 23] | 27.9 | 107 | 8.8
Y[Aib]QGTFTSDYSKYLDECAAKEFVQWLLDHHPSSGQPPPS (bridge 16-20; not fully specified (bridges)) [trigonal agonist of SEQ ID NO: 19] | 64.6 | 92.9 | 60.1
H[Aib]QGTFTSDYSKCLDEKRAKEFVQWLLDHHPSSGQPPPS (bridge 16-20; not fully specified (bridges)) [trigonal agonist of SEQ ID NO: 20] | 95.4 | 11.6 | 25.2
Y[Aib]QGTFTSDYSKCLDEKRAKDFVQWLLDHHPSSGQPPPS (bridge 16-20; not fully specified (bridges); ends not checked) [trigonal agonist of SEQ ID NO: 25] | 15.1 | 64.4 | 71.3
[Acetyl(2-(4-imidazolyl))][Aib]QGTFTSDYSKYLDECRAKEFVQWLLDHHPSSGQPPPS (bridge 16-20; not fully specified (bridges)) [trigonal agonist of SEQ ID NO: 28] | 22.6 | 3 | 5.4
H[Aib]QGTFTSDYSKYLDEKAQKEFVQWLLDTC (bridge 16-20; not fully specified (bridges)) [trigonal agonist of SEQ ID NO: 3] | 142 | 0.8 | 0.7
Y[Aib]QGTFTSDYSKCLDERAAKEFVQWLLDHHPSSGQPPPS (bridge 16-20; not fully specified (bridges)) [trigonal agonist of SEQ ID NO: 24] | 24.3 | 62.8 | 9.6
Y[Aib]QGTFTSDYSKYLDERACKDFVQWLLDHHPSSGQPPPS (bridge 16-20; not fully specified (bridges); ends not checked) [trigonal agonist of SEQ ID NO: 26] | 90.1 | 94.7 | 12.7
Y[Aib]QGTFTSDCSKYLDERAAKDFVQWLLDHHPSSGQPPPS (bridge 16-20; not fully specified (bridges); ends not checked) [trigonal agonist of SEQ ID NO: 27] | 11.5 | 1.6 | 1
Y[Aib]QGTFTSDYSKYLDECAAKDFVQWLLDHHPSSGQPPPS (bridge 16-20; not fully specified (bridges)) [trigonal agonist of SEQ ID NO: 22] | 28.5 | 39.8 | 46.2
H[Aib]EGTFTSDYSIAMDEIHQKDFVNWLLAQC (lactam 16-20) [trigonal agonist of SEQ ID NO: 14] | 161 | 1.3 | 8.4
Y[Aib]QGTFTSDYSKCLDEKRAKEFVQWLLDHHPSSGQPPPS (bridge 16-20; not fully specified (bridges)) [trigonal agonist of SEQ ID NO: 2] | 20.1 | 59.7 | 140
H[Aib]EGTFTSDYSIAMDEIHQKDFVDWLLAEC (bridge 16-20; not fully specified (bridges)) [trigonal agonist of SEQ ID NO: 15] | 30.6 | 0.1 | 1.4
Y[Aib]QGTFTSDYSKYLDECRAKDFVQWLLDHHPSSGQPPPS (bridge 16-20; not fully specified (bridges)) [trigonal agonist of SEQ ID NO: 21] | 15.8 | 17.2 | 172
H[Aib]QGTFTSDYSKYLDEKRQKEFVQWLLDTC (bridge 16-20; not fully specified (bridges)) [trigonal agonist of SEQ ID NO: 13] | 44.1 | 0.3 | 7.5
H[Aib]QGTFTSDYSKYLDEKRQKEFVNWLLAQC (bridge 16-20; not fully specified (bridges)) [trigonal agonist of SEQ ID NO: 17] | 57.9 | 0.8 | 4.9
H[Aib]QGTFTSDYSIAMDEIHQKDFVNWLLAQC (lactam 16-20) [trigonal agonist of SEQ ID NO: 16] | 27.1 | 2.4 | 0.7
